The values below are quoted from earlier work in paper PMC6964287.

One data set concerns the target Asp85 (UniProt position 98, WARYADWLFTT). In words: NMR. The conditions noted are these: membrane-associated pHLIP; protonation linked to bilayer insertion.
Another data set addresses Asp96 (UniProt position 109, PLLLLDLALLV). In words: NMR. The following applies: membrane-associated pHLIP; protonation linked to bilayer insertion.

With “pHLIP (pH-Low Insertion Peptide), peptide derived from bacteriorhodopsin helix C (Halobacterium salinarum)”, the pKa (usually the negative logarithm of the acid dissociation constant) with Asp85 is 5.82 ± 0.08; with Asp96, 6.08 ± 0.08.
